{
  "source": "patent US20080311122A1",
  "about": "“Antagonists of Hmgb1 and/or Rage and Methods of Use Thereof” (Medimmune, LLC, priority 2005, published 2008)",
  "key": {"[1]": {"tested_on": "LPS+HMG1 induced TNF-a release (TLR4 signaling)", "experiment": "Inhibition of HMG1 mediated enhancement of TLR4 signaling, LPS+HMG1 TNF-a release", "type": "cell-based, mouse"}, "LPS-induced ALI": {"tested_on": "LPS-induced ALI", "experiment": "LPS induced acute lung injury (ALI) mouse model", "type": "in vivo", "conditions": "percent protection, isotype control subtracted", "description": "Induction of LPS-induced ALI: LPS (E. coli strain 01111:B4. Sigma, St. Louis, Mo.) was administered intranasally to isoflurane (Baxter Pharmaceuticals, Deerfield, Ill.) anesthetized adult BALB/c mice on day 1 at a dose of 5-10 ug per mouse in 50-100 μl. For determination of HMG1 levels animals were euthanized by CO2 asphyxiation at 4, 8, 24, 32 and 48 hours post LPS administration, and BronchoAlvcolar Lavarge (BAL) and other samples collected for protein analysis and histopathology. For treatment protocols 24 hours post LPS dosing, anti-HMGB1 antibodies, HMG1 A-box Fc fusion or controls were administered intraperitoneally (i.p.) at a dose of 10 mg/kg in 100 ul volumes. On day 3 (48 h post LPS dosing), animals were euthanized by CO2 asphyxiation and samples (BALs, blood, and lungs) collected for analysis.\nBAL Sample Collection: lungs were flushed three times with ˜0.8 ml Phosphate buffered saline (PBS, pH 7.2, GIBCO, Rockville, Md.) using a syringe with a catheter tubing. BAL samples collected were centrifuged at 1,200 rpm for 10 min at 4 C, supernatant collected and stored at −80 C for protein (e.g. HMGB1) quantitation, and cells in pellet were resuspended and transferred to cytoslides, fixed, GIEMSA stained, and BAL cellularity determined visually with the aid of a microscope."}},
  "note": "“Also recorded” adds a separate entry of the source.",
  "data": [
    {"molecule": "E11: human anti-HMG1 antibody, recognizes HMG1 A-Box; VL/VH aa SEQ ID NO: 24/26 (antibody, listed as Homo sapiens, V domains shown) VH: EVQLLESGGGLVQPGGSLRLSCAASGFTFSRYQMNWVRQAPGKGLEWVSSISPSGGHTHYADSVKGRFTISRDNSKNTLYLQMNSLRAEDTAVYYCAKDGRQGKISTVDHWGQGTLVTVSS VL: AQDIQMTQSPGTLSLSPGERATLSCRASQSVRSNFLAWYQQKPGQAPRLLIYGASRRASGIPDRFSGSGFGADFTLSISRLEPEDFAVYYCQQYGSSPNTFGQGSRVEIK", "values": [
      {"measurement": "inhibition of TNF-a release induced by LPS+HMG1", "setting": "[1]", "value": "inhibits the release of TNF-a induced by LPS+HMG1; also recorded: could be blocked; also recorded: inhibit the release of TNFa induced by LPS+HMG1"},
      {"measurement": "inhibition of signaling by LPS alone", "setting": "[1]", "value": "inhibit signaling by LPS alone"},
      {"measurement": "in vivo ALI", "setting": "LPS-induced ALI", "value": 37, "unit": "%"}
    ]}
  ]
}
